Laboratory results taken from US20180346555A1 (Regeneron, published 2018).

T1: natural Bet v 1 (Indoor Biotechnologies, # NA-BV1-1) (Betula verrucosa (Betula pendula), UniProt P15494 2-160, biotin labeled in the IgE blocking ELISA (Tables 12-14); unlabeled in the SPR of Table 18)
T1 construct: Bought natural allergen purified from birch pollen; also called nBet v 1; Biotinylated Bet v 1
T1 chain: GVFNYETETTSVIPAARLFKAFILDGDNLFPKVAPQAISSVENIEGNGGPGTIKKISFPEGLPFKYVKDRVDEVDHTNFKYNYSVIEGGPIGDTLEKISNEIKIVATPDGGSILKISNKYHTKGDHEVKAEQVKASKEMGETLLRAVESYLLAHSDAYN

T2: natural Bet v 1 (Betula verrucosa (Betula pendula), UniProt P15494 2-160)
T2 chain: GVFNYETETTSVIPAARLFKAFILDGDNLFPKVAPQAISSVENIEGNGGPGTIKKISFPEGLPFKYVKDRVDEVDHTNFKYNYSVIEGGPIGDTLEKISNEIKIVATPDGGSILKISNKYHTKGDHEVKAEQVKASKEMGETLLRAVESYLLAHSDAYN


Assays:
[1] = biological target: T1, natural Bet v 1 (Indoor …); test: blocking ELISA, captured IgE of donor 22627-MN, 1 ug/mL each antibody
[2] = biological target: T1, natural Bet v 1 (Indoor …); test: blocking ELISA, captured IgE of donor 23035-BL, 1 ug/mL each antibody
[3] = biological target: T1, natural Bet v 1 (Indoor …); test: blocking ELISA, captured IgE of donor 23658-MD, 1 ug/mL each antibody
[4] = biological target: T1, natural Bet v 1 (Indoor …); test: blocking ELISA, captured IgE of donor 23939-MH, 1 ug/mL each antibody
[5] = biological target: T1, natural Bet v 1 (Indoor …); test: blocking ELISA, captured IgE of donor 25299-RJ, 1 ug/mL each antibody
[6] = biological target: T1, natural Bet v 1 (Indoor …); test: blocking ELISA, captured IgE of donor 25340-RR, 1 ug/mL each antibody
[7] = biological target: T1, natural Bet v 1 (Indoor …); test: blocking ELISA, captured IgE of donor 25414-CW, 1 ug/mL each antibody
[8] = biological target: T1, natural Bet v 1 (Indoor …); test: blocking ELISA, captured IgE of donor 25609-MS, 1 ug/mL each antibody
[9] = biological target: T1, natural Bet v 1 (Indoor …); test: blocking ELISA, captured IgE of donor 26532-CC, 1 ug/mL each antibody
[10] = biological target: T1, natural Bet v 1 (Indoor …); test: blocking ELISA, captured IgE of donor 29718-MW, 1 ug/mL each antibody
[11] = biological target: T1, natural Bet v 1 (Indoor …); test: dose-response blocking ELISA, captured IgE of donor 23939-MH, at 1 ug/mL each antibody
[12] = biological target: T1, natural Bet v 1 (Indoor …); test: dose-response blocking ELISA, captured IgE of donor 25340-RR, at 1 ug/mL each antibody
[13] = biological target: T1, natural Bet v 1 (Indoor …); test: dose-response blocking ELISA, captured IgE of donor 25609-MS, at 1 ug/mL each antibody
natural Bet v 1 [14] = biological target: T2, natural Bet v 1; test: cell-based or functional assay
natural Bet v 1 [15] = biological target: T2, natural Bet v 1; test: SPR Biacore 4000, mAb captured on anti-human Fc, 25C;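 further: purified anti-Bet v 1 mAbs probed with natural Bet v 1 in HBS-ET buffer (HEPES, NaCl, EDTA, Tween-20) at pH 7.4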
Description: (§1) Equilibrium dissociation constants (KD) for natural Bet v 1 binding to purified anti-Bet v 1 monoclonal antibodies were determined using a real-time surface plasmon resonance biosensor (SPR-Biacore) on a Biacore 4000 instrument. All binding studies were performed in 10 mM HEPES, 150 mM NaCl, 3 mM EDTA, and 0.05% v/v surfactant Tween-20, pH 7.4 (HBS-ET) running buffer at 25° C. and 37° C. […] Association (kₐ) and dissociation (kd) rate constants were determined by fitting the real-time binding sensorgrams to a 1:1 binding model with mass transport limitation using Scrubber 2.0c curve-fitting software. Binding dissociation equilibrium constants (KD) and dissociative half-lives (t½) were calculated from the kinetic rate constants as:

natural Bet v 1 [16] = biological target: T2, natural Bet v 1; test: SPR Biacore 4000, mAb captured on anti-human Fc, 37C;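 further: kinetic rate constants from SPR sensorgrams fitted to a 1:1 model with mass transport limitation, HBS-ET buffer pH 7.4, KD and t½ derived from the rate constants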
Description: as §1

Binder | Percent Blocking [1] [%] | Percent Blocking [2] [%] | Percent Blocking [3] [%] | Percent Blocking [4] [%] | Percent Blocking [5] [%] | Percent Blocking [6] [%] | Percent Blocking [7] [%] | Percent Blocking [8] [%] | Percent Blocking [9] [%] | Percent Blocking [10] [%] | Percent Blocking [11] [%] | Percent Blocking [12] [%] | Percent Blocking [13] [%] | blockade of basophil activation (phospho-Erk MFI in basophils of PBMCs from birch allergic donors, 100 pM natural Bet v 1) (natural Bet v 1 [14]) [%] | 100 nM natural Bet v 1 Bound (RU) (natural Bet v 1 [15]) | Kd (natural Bet v 1 [15]) [nM] | 100 nM natural Bet v 1 Bound (RU) (natural Bet v 1 [16]) | Kd (natural Bet v 1 [16]) [nM] | t½ (natural Bet v 1 [16]) [min]
H4H16987P (antibody, human IgG4 S228P, kappa, V domains shown, human IgG4; also called MAB4) VH: EVQLVESGGGLVQPGGSLRLSCAASGFTVSSNSMSWVRQAPGEGLEWVSVIFSGGITYYSDSVKGRFTISRHNSKNTLYLQMNSLRTEDTAVYYCARHSNWNFDAFDIWGQGTMVTVSS VL: DIQMTQSPSSLSASVGDRVTITCRASQSFDTYLNWYQQKPGKAPNLLIYATSSLQSGVPSRFSGSGSGTDFTLTISSLQPEDFGTYYCQQSYSIPYTFGQGTKLEIKR | 12 | -46 | 27 | 16 | 9 | 15 | -4 | 16 | 4 | 13 | 19.6 | 11.1 | 21.6 | – | – | – | – | – | –
H4H17082P2 (antibody, human IgG4 S228P, kappa, V domains shown, Human IgG4; also called REGN5715; MAB2) VH: QVQLVQSGAEVKKPGASVKVSCKASGYTFISYNIFWVRQATGQGLDWMGWMNPFRNNAGYAQKFQGRVTVTWDTSISTAYMELSSLSSEDTAIYYCAREHGSSWGFFDYWGQGTLVTVSS VL: not shown | – | – | – | – | – | – | – | – | – | – | – | – | – | 70 | 72 | 1.09 | 83 | 2.43 | 6.3
H4H17082P2 (antibody, human IgG4 S228P, kappa, V domains shown, human IgG4; also called REGN5715; MAB2) VH: QVQLVQSGAEVKKPGASVKVSCKASGYTFISYNIFWVRQATGQGLDWMGWMNPFRNNAGYAQKFQGRVTVTWDTSISTAYMELSSLSSEDTAIYYCAREHGSSWGFFDYWGQGTLVTVSS VL: not shown | – | 52 | – | 79 | 66 | 81 | 38 | 51 | 74 | 49 | 82.9 | 82.7 | 56.4 | – | – | – | – | – | –
